Data taken from US20240287172A1 (SCIRHOM, published 2024).

T1: hiR2-FL-L539A-T7 (human, UniProt Q6PJF5 1-856)
T1 construct: on MEF-DKO cells
T1 sequence: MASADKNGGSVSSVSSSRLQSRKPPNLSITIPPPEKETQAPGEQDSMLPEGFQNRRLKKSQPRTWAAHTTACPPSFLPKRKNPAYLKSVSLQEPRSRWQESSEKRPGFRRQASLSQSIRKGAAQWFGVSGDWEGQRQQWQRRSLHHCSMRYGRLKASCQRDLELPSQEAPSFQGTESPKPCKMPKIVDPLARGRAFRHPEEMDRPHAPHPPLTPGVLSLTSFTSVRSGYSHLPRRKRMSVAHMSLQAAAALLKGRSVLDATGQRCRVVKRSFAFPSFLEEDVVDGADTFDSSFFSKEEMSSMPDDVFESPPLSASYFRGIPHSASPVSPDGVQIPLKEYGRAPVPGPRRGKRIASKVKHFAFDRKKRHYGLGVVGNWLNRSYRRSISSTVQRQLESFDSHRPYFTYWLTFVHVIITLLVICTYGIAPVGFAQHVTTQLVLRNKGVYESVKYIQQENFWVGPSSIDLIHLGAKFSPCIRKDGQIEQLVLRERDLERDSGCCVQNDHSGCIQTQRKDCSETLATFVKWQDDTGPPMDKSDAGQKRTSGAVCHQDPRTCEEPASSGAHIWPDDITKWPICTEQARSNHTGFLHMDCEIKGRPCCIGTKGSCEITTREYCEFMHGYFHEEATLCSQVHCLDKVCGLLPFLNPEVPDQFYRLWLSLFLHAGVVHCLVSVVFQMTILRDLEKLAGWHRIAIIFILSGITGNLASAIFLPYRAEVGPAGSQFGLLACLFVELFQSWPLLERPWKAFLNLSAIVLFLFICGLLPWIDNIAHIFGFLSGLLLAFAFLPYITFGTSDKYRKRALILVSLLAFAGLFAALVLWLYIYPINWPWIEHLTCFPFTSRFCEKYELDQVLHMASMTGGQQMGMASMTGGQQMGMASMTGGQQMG

T2: hiR2-FL-L438S-T7 (human, UniProt Q6PJF5 1-856)
T2 sequence: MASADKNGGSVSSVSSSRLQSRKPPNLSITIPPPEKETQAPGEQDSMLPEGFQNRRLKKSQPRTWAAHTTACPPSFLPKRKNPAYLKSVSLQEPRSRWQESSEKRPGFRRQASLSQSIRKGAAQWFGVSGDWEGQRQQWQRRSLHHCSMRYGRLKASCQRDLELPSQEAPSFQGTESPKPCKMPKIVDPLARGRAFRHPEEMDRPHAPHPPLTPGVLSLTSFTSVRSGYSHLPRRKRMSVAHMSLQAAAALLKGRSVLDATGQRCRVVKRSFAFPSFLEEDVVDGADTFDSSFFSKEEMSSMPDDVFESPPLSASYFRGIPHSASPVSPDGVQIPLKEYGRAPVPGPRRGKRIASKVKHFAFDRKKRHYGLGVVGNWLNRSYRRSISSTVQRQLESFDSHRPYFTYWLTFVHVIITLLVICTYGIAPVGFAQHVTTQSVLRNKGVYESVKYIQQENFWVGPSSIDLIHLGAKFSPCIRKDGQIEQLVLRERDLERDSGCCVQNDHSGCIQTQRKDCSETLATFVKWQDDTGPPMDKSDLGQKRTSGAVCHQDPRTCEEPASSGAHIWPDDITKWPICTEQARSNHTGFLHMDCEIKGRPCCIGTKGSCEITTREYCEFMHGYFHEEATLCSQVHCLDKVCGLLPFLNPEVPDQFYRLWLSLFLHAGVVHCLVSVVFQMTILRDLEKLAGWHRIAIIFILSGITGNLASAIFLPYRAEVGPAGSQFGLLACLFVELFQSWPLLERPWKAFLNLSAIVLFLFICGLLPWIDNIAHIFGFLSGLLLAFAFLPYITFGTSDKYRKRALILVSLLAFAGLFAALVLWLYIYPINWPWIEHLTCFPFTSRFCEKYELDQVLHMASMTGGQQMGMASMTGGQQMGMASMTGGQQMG


Assays:
[1] = target: T1, hiR2-FL-L539A-T7; test: FACS on MEF-DKO-hiR2-FL-L539A-T7 cells
[2] = target: T2, hiR2-FL-L438S-T7; test: FACS, MEF-DKO cells, 3 µg/ml

Binder	binding result [1]	loss of binding vs wild type [2]
antibody 3 (antibody, V domains shown, mouse IgG, kappa light chain; also called clone #3; purified antibody 3) VH: QVTLKESGPGILQPSQTLSLTCSFSGFSLTTFAMGIGWVRQPSGKGLEWLAHIWWDGEKYNNPVLKSRLTISKDTSKNQVFLRIANVDTPDTATYYCARISSIYYIIDNWGQGTSVTVSS VL: DIVLTQSPATLSVTPGHSVSLSCRASQSISNNLHWYQKKSHESPRLLIKYVSQSISGIPSRFSGSGSGTDFTLSINSVETEDFGMYFCQQSYNWPLTFGAGTKLELK	no binding (tested: 3 µg/ml)	
antibody 50 (antibody, V domains shown, mouse IgG, kappa light chain; also called clone #50; purified antibody 50) VH: QVQLQQSGAELVRPGASVKVSCKASGYAFSNYLIEWVKQRPGQGLEWIGVINPGSGFTKYNEKFKGKATLTADKSSSTAYMQLSSLTSEDSAVYFCARGLYRAMDYWGQGTSVTVSS VL: DIQMTQSPASQSASLGESVTITCLASQTIGTWLAWYQQKPGKSPQLLIYAAASLADGVPSRFSGGGSGTKFSFKISSLQAEDFVNYYCQQIYSTPYTFGGGTKLEIK		≥ 30%
